According to US20230295310A1 (ABCELLERA BIOLOGICS, published 2023):
Substitutions are numbered along the chain they refer to.

B1: GOMP001_bsAb_023 (bispecific antibody, human IgG1, kappa, L234A L235A)
heavy 1: QVQLVQSGAEVKKPGASVKVSCKASGYTFTSHWMHWVRKAPGQGLEWIGEFNPSNGRTNYNEEFKSKATMTVDTSTNTAYMELSSLRSEDTAVYYCASRDYDYDGRYFDYWGQGTLVTVSSASTKGPSVFPLAPSSKSTSGGTAALGCLVADYFPEPVTVSWNSGALTSGVHTFPAVLQSSGLYSLSSVVTVPSSSLGTQTYICNVNHKPSNTKVDEKVEPKSCDKTHTCPPCPAPEAAGGPSVFLFPPKPKDTLMISRTPEVTCVVVDVSHEDPEVKFNWYVDGVEVHNAKTKPREEQYNSTYRVVSVLTVLHQDWLNGKEYKCKVSNKALPAPIEKTISKAKGQPREPQVYTLPPSREEMTDNQVSLTCLVKGFYPSDIAVEWESNGQPENNYKTTPPVLMSDGSFFLASKLTVDKSRWQQGNVFSCSVMHEALHNHYTQKSLSLSPG
light 1: RIQMTQSPSSLSASVGDRVTITCSASSSVTYMYWYQDKPGKAPKLLIYDTSNLASGVPSRFSGSGSGTDYTFTISSLQPEDIATYYCQQWSSHIFTFGQGTKVEIKRTVAAPSVFIFPPSDKQLKSGTARVVCLLNNFYPREAKVQWKVDNALQSGNSQESVTEQDSKDSTYSLSSTLTLSKADYEKHKVYACEVTHQGLSSPVTKSFNRGEC
heavy 2: QGQLVESGGGVVQPGRSLRLSCEASGFTFRSYGMHWVRYPPGKGLEWVAIIWYDGGKKYYGDRVKGRFTISRDNPKNTLYLQMNSLRPEDTAVYYCMAYDYSNGFDIWGRGTMVTVSSASTKGPSVFPLAPSSKSTSGGTAALGCLVKDYFPEPVTVSWNSGALTSGVHTFPAVLQSSGLYSLSSVVTVPSSSLGTQTYICNVNHKPSNTKVDKKVEPKSCDKTHTCPPCPAPEAAGGPSVFLFPPKPKDTLMISRTPEVTCVVVDVSHEDPEVKFNWYVDGVEVHNAKTKPREEQYNSTYRVVSVLTVLHQDWLNGKEYKCKVSNKALPAPIEKTISKAKGQPRRPRVYTLPPSREEMTKNQVSLVCLVKGFYPSDIAVEWESNGQPENNYKTTPPVLDSDGSFFLYSVLTVDKSRWQQGNVFSCSVMHEALHNHYTQKSLSLSPG
light 2: DIVMTQTPLSSPVTLGQPASISCRSSQSFVHSDGSTYLSWLQRRPGDPPRLLIYKISNRFSGVPDRFSGRGAGTDFTLKISRVEAEDVGIYYCMQNTQFPYTFGQGTKLEIKRTVAAPSVFIFPPSDEQLKSGTASVVCLLNNFYPREAKVQWKVDNALQSGNSQESVTEQDSKDSTYSLSSTLTLSKADYEKHKVYACEVTHQGLSSPVTKSFNRGEC
B2: GOMP001_bsAb_024 (bispecific antibody, human IgG1, kappa, L234A L235A)
heavy 1: B1 heavy 2
light 1: B1 light 2
heavy 2: QVQLVQSGAEVKKPGASVKVSCKASGYTFTSHWMHWVRYAPGQGLEWIGEFNPSNGRTNYNEKFKSKATMTVDTSTNTAYMELSSLRSEDTAVYYCASRDYDYDGRYFDYWGRGTLVTVSSASTKGPSVFPLAPSSKSTSGGTAALGCLVKDYFPEPVTVSWNSGALTSGVHTFPAVLQSSGLYSLSSVVTVPSSSLGTQTYICNVNHKPSNTKVDKKVEPKSCDKTHTCPPCPAPEAAGGPSVFLFPPKPKDTLMISRTPEVTCVVVDVSHEDPEVKFNWYVDGVEVHNAKTKPREEQYNSTYRVVSVLTVLHQDWLNGKEYKCKVSNKALPAPIEKTISKAKGQPRRPRVYTLPPSREEMTKNQVSLVCLVKGFYPSDIAVEWESNGQPENNYKTTPPVLDSDGSFFLYSVLTVDKSRWQQGNVFSCSVMHEALHNHYTQKSLSLSPG
light 2: B1 light 1 with R1D, D37R, K41D, K122E, R130S
B3: GOMP001_bsAb_029 (bispecific antibody, human IgG1, kappa, L234A L235A)
heavy 1: B1 heavy 1
light 1: B1 light 1
heavy 2: QVQLVQSGAEVKKPGASVKVSCKASGYTVTGYYMHWVRYAPGQGLEWMGWINPNSGGTNFAQRFQGRVTMTRDTSISTFYMDLNRLRSDDTAVYYCARGGAPVSYWFFDLWGRGTLVTVSSASTKGPSVFPLAPSSKSTSGGTAALGCLVKDYFPEPVTVSWNSGALTSGVHTFPAVLQSSGLYSLSSVVTVPSSSLGTQTYICNVNHKPSNTKVDKKVEPKSCDKTHTCPPCPAPEAAGGPSVFLFPPKPKDTLMISRTPEVTCVVVDVSHEDPEVKFNWYVDGVEVHNAKTKPREEQYNSTYRVVSVLTVLHQDWLNGKEYKCKVSNKALPAPIEKTISKAKGQPRRPRVYTLPPSREEMTKNQVSLVCLVKGFYPSDIAVEWESNGQPENNYKTTPPVLDSDGSFFLYSVLTVDKSRWQQGNVFSCSVMHEALHNHYTQKSLSLSPG
light 2: DIQMTQSPSSLSASVGDRVTITCRASQSISRYLNWYQRKPGDAPKVLIYNTSSLKSGVPSRFSGSGSGTDFTLTISSLQPEDFGTFYCQQSHSTPFTFGPGTKVDIKRTVAAPSVFIFPPSDEQLKSGTASVVCLLNNFYPREAKVQWKVDNALQSGNSQESVTEQDSKDSTYSLSSTLTLSKADYEKHKVYACEVTHQGLSSPVTKSFNRGEC
B4: GOMP001_bsAb_030 (bispecific antibody, human IgG1, kappa, L234A L235A)
heavy 1: B3 heavy 2
light 1: B3 light 2
heavy 2: B2 heavy 2
light 2: B1 light 1 with R1D, D37R, K41D, K122E, R130S

Biological target: human EGFR, C-terminal eGFP-tagged, on CHO-K1 cells (human, UniProt P00533 25-1210)
Experiment: cell-based or functional assay

Point of comparison: B2, “EC50 CHO-K1 EGFR Low (nM); T cell activation bioassay, luciferase” value 0.245 nM. Against it:
- B1 — 34-fold higher, 8.34 nM
- B3 — within 1.5-fold, 0.271 nM
- B4 — 3.8-fold lower, 0.0644 nM

Point of comparison: B2, “EC50 CHO-K1 EGFR Med (nM); T cell activation bioassay, luciferase” value 0.122 nM. Against it:
- B1 — 14-fold higher, 1.71 nM
- B3 — 5.4-fold lower, 0.0226 nM
- B4 — 45-fold lower, 0.00272 nM
